Test results reported in the supplement of paper PMC7877785.
± gives the uncertainty stated by the source.

Experiment: self-splicing fitness, log relative to wild type (ln ratio); higher = more splicing; Tetrahymena group I intron in knt gene, E. coli kanamycin selection, DiMSum; sequences stand for … in CUCUCU…GGAGGGAAAAGUUAUCAGGCAUGCACCUGGUAGCUAGUCUUUAAACCAAUAGAUUGCAUCGGUUUAAAAGGCAAGACCGUCAAAUUGCGGGAAAGGGGUCAACAGCCGUUCAGUACCAAGUCUCAGGGGAAACUUUGAGAUGGCCUUGCAAAGGGUAUGGUAAUAAGCUGACGGACAUGGUCCUAACCACGCAGCCAAGUCCUAAGUCAACAGAUCUUCUGUUGAUAUGGAUGCAGUUCACAGACUAAAUGUCGGUCGGGGAAGAUGUAUUCUUCUCAUAAGAUAUAGUCGGACCUCUCCUUAAUGGGAGCUAGCGGAUGAAGUGAUGCAACACUGGAGCCGCUGGGAACUAAUUUGUAUGCGAAAGUAUAUUGAUUAGUUUUGGAGUACUCGUGGUCG
Method in brief: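 Library with all eight P1ex-region intron nucleotides randomised, intron inside the knt kanamycin-resistance gene on pET-22b(+), in E. coli BL21(DE3). Cells grew overnight at 37°C or 30°C on LB agar with or without 25 μg/mL kanamycin (plus 100 μg/mL carbenicillin, 50 μM IPTG, 0.2% rhamnose), in six replicate transformations. Pooled colonies were amplicon-sequenced on Illumina HiSeq 2500. DiMSum fitness is the error-weighted combination of wild-type-normalised replicate fold changes, kanamycin versus none.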

Sequence | self-splicing fitness (ln) (30 °C) | self-splicing fitness (ln) (37 °C)
CCCAAGCAAUAUUACGGGUC | -3.19 ± 0.13 | -3.14 ± 0.19
CCCAAGCAAUAUUACGGUAG | -2.45 ± 0.086 | -1.77 ± 0.087
CCCAAGCAAUAUUACGGUCC | -2.66 ± 0.15 | -2.65 ± 0.21
CCCAAGCAAUAUUACGUAUC | -4.03 ± 0.14 | -2.52 ± 0.14
CCCAAGCAAUAUUACGUUCG | -2.11 ± 0.14 | -2.49 ± 0.2
CCCCAGCAAUAUUACGAACU | -5.09 ± 0.45 | -2.29 ± 0.2
CCCCAGCAAUAUUACGAAGC | -4.34 ± 0.31 | -3.28 ± 0.3
CCCCAGCAAUAUUACGAAUA |  | -1.41 ± 0.21
CCCCAGCAAUAUUACGACAC | -3.97 ± 0.43 | -2.41 ± 0.36
CCCCAGCAAUAUUACGAGGA | -2.66 ± 0.13 | -1.53 ± 0.11
CCCCAGCAAUAUUACGAUCC | -3.27 ± 0.27 | -0.776 ± 0.32
CCCCAGCAAUAUUACGAUGA | -3.16 ± 0.16 | -3.01 ± 0.19
CCCCAGCAAUAUUACGAUGC | -3.46 ± 0.16 | -3.15 ± 0.29
CCCCAGCAAUAUUACGCAAA | -3.28 ± 0.14 | -2.44 ± 0.18
CCCCAGCAAUAUUACGCAAC | -3.54 ± 0.14 | -2.48 ± 0.15
CCCCAGCAAUAUUACGCACU | -4.21 ± 0.33 | -2.68 ± 0.22
CCCCAGCAAUAUUACGCGUU | -4.16 ± 0.17 | -2.57 ± 0.19
CCCCAGCAAUAUUACGCUCU | -3.81 ± 0.22 | -2.47 ± 0.26
CCCCAGCAAUAUUACGCUUA | -3.59 ± 0.17 | -2.66 ± 0.17
CCCCAGCAAUAUUACGGACG | -1.67 ± 0.096 | -0.944 ± 0.13
CCCCAGCAAUAUUACGGAGG | -4.83 ± 0.26 | -2.63 ± 0.16
CCCCAGCAAUAUUACGGCAA | -3.17 ± 0.15 | -3.06 ± 0.2
CCCCAGCAAUAUUACGGUGC | -3.88 ± 0.19 | -2.73 ± 0.18
CCCCAGCAAUAUUACGGUUC | -4.25 ± 0.25 | -2.97 ± 0.28

Sequence | self-splicing fitness (ln) (30 °C) | self-splicing fitness (ln) (37 °C)
CCCCAGCAAUAUUACGUACG | -3.95 ± 0.26 | -1.89 ± 0.17
CCCCAGCAAUAUUACGUAGU | -3.09 ± 0.078 | -3.07 ± 0.16
CCCCAGCAAUAUUACGUCCC | -2.21 ± 0.36 | 
CCCCAGCAAUAUUACGUUCU | -4.2 ± 0.27 | -3.05 ± 0.17
CCCCAGCAAUAUUACGUUUA | -3.99 ± 0.16 | -2.35 ± 0.15
CCCGAGCAAUAUUACGCAAA | -4.05 ± 0.35 | -0.386 ± 0.21
CCCGAGCAAUAUUACGCAGG | -1.97 ± 0.2 | -1.36 ± 0.22
CCCGAGCAAUAUUACGCAUU | -3.69 ± 0.33 | -2.22 ± 0.3
CCCGAGCAAUAUUACGCCGC | -3.53 ± 0.43 | -1.59 ± 0.47
CCCGAGCAAUAUUACGCGCU | -3.45 ± 0.25 | -2.91 ± 0.29
CCCGAGCAAUAUUACGCGGC | -3.67 ± 0.4 | -1.88 ± 0.29
CCCGAGCAAUAUUACGCGUG | -3.9 ± 0.2 | -3.2 ± 0.29
CCCGAGCAAUAUUACGGCUA | -3.46 ± 0.29 | -3.2 ± 0.32
CCCGAGCAAUAUUACGGCUC | -4.18 ± 0.34 | -2.21 ± 0.23
CCCGAGCAAUAUUACGGGCA | -3.2 ± 0.23 | -2.66 ± 0.23
CCCGAGCAAUAUUACGGGGG | -3.59 ± 0.16 | -2.89 ± 0.27
CCCGAGCAAUAUUACGGGUC | -4.34 ± 0.28 | -2.12 ± 0.23
CCCGAGCAAUAUUACGGGUU | -3.82 ± 0.16 | -2.89 ± 0.18
CCCGAGCAAUAUUACGUACG | -3.24 ± 0.18 | -2.83 ± 0.24
CCCGAGCAAUAUUACGUAGC | -3.06 ± 0.24 | -2.49 ± 0.33
CCCGAGCAAUAUUACGUAUG | -4.9 ± 0.45 | -2 ± 0.19
CCCGAGCAAUAUUACGUCAA | -3.36 ± 0.2 | -3.09 ± 0.2
CCCGAGCAAUAUUACGUCUU | -3.38 ± 0.18 | -2.16 ± 0.19
